Results taken from patent US20210040201A1.
pEC50, pIC50: −log10 of the molar value.

Experiments:
[1] = molecular target: Human TIGIT expressed on the surface of cells (human) (UniProt Q495A1); assay: flow cytometry competition against 50 nM human CD155-mouse IgG2a Fc on CHOS cells expressing human TIGIT; negative control
[2] = molecular target: Human TIGIT expressed on the surface of cells (human) (UniProt Q495A1); assay: flow cytometry competition against 50 nM human CD155-mouse IgG2a Fc on CHOS cells expressing human TIGIT; negative control (text says IgG4)
[3] = molecular target: Human TIGIT expressed on the surface of cells (human) (UniProt Q495A1); assay: cell-based or functional assay
[4] = molecular target: Human TIGIT expressed on the surface of cells (human) (UniProt Q495A1); assay: flow cytometry competition with 50 nM human CD155-mouse IgG2a Fc on CHOS cells overexpressing human TIGIT; fit value of the flat negative-control curve; the row of the drawn table is headed EC50, the text calls the values IC50
[5] = molecular target: Human TIGIT expressed on the surface of cells (human) (UniProt Q495A1); assay: flow cytometry, antibody titrated on CHO cells expressing human TIGIT, median fluorescence intensity; fit value of the flat negative-control curve in the table under the graph

Human TIGIT expressed on the surface of cells (human), sequence (Q495A1 22-244 limits assumed): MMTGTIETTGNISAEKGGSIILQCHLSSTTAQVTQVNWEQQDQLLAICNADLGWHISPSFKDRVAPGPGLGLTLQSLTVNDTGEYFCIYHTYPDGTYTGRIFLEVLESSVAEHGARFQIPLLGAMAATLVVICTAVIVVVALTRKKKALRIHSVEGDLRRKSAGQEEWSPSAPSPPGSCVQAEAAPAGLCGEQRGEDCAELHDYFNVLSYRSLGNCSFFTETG

Row | pIC50 [1] | pIC50 [2] | EC50, MOA-based assay (luciferase reporter under IL2 promoter) [3] | pIC50 [4] | pEC50 [5] | Substance
1 | 10.41 | 8.94 | 273 nM | – | – | IgG1 (negative control) (antibody)
2 | – | – | – | 8.94 | 4.27 | IgG4 (antibody)
